In patent US20210246189A1 one finds Ag-specific CD8 T cell population after 5d culture with 0.25 ug pMHC and Ag-specific CD8 T cell population after 5d culture with 0.5 ug pMHC data, which are given here for two substances.

The target in this assay is transgenic TCR specific for A*02:01/pp65495-503, on transduced PBMCs. Nature of the assay: cell-based or functional assay.

For the substance “A1/pp65(363-373) pMHC functionalized with MMAF (irrelevant toxin armed Streptamer) (from UniProt P61769 21-119; P06725 363-373) (peptide-MHC)”, the Ag-specific CD8 T cell population after 5d culture with 0.25 ug pMHC turned out to be 60.7%. For the substance “un-functionalized A2/pp65495-503 pMHC (Tub-tagged Streptamer) (from UniProt P61769 21-119; P06725 495-503) (peptide-MHC)”, the Ag-specific CD8 T cell population after 5d culture with 0.25 ug pMHC was found to be 64.5% and the Ag-specific CD8 T cell population after 5d culture with 0.5 ug pMHC was in the range of 20 to 43.7%.
